No end group written: not given here.
Assays:
[1] = Stability analysis of Cy7.5-labeled peptides in phosphate-buffered saline (HPLC); format: physicochemical
Description: After synthesis the chemical purity of the peptides was analyzed by reversed-phase chromatography; we used high-efficiency liquid chromatography: LC-20AD XR (Shimadzu, Japan) equipped with a spectrophotometric detector and a column Luna C18(2) ([…]). The elution was gradient, its mobile phase consisted of deionized water and acetonitrile. The acetonitrile content in a mobile phase was increased from 5% at the beginning of the study to 100% at the end of the study within 40 min. The flow rate was 1 ml/min. Detection was performed at a wavelength of 215 nm, using mass spectrometry with the MALDI-TOF MS FLEX mass spectrometer (Bruker Daltonics, Germany).
We studied the stability of both — the whole structures (Cy7.5-BBN/C1-C2, Cy7.5-GRP, Cy7.5-U5-Sth1a) and also the peptide complexes with Cy7.5. So, all peptides were incubated in the phosphate-buffered saline (pH 7.4) for 144 h, at 37°С. Every 24 h we drew the samples and analyzed them using high-efficiency liquid chromatography LC-20AD XR (Shimadzu, Japan), as described above. The stability of the complex with the dye was fixed similarly to the peptide stability fixation, as following from the accumulation of the free dye in samples.

[2] = tested on: patients; conditions: patients with AMBA therapy; cited from earlier work
Description: The key feature of these peptides is their ability to internalize inside the cells, acting as receptor agonists. At early stages of developing pharmaceuticals, this ability was an important condition for high and long-term absorption of a tumor by a pharmaceutical. However, currently, it appears to be a substantial deficiency, since radiolabeled agonists provide high absorption of radionuclides. One more major drawback of the ligands based on GRPR agonists is their absorption by normal non-tumor cells, particularly, the pancreatic cells. So, the potent GRPR agonist — AMBA (DOTA-Gl ...

[3] = tested on: PC-3 prostate cancer solid tumor expressing GRPR; experiment: Tumor fluorescent imaging on days 2 and 5; format: in vivo, mouse; conditions: Cy7.5-labeled peptides, i.v. 19 nmol/kg, PC-3 tumor in Nu/Nu mice
Description: (§1) Since Cy7.5-GRP peptide stability was limited, firstly, 48 h at 37°С in phosphate-buffered saline, there were two time points used in the study — 2 and 5 days. Two weeks prior to the investigation, the animals were subcutaneously inoculated into the right side with PC-3 cells (1 mil cells in RPMI-1640, 100 μl (PanEco, Russia), and matrigel, 100 μl (ABW, China)) to form a tumor. When the tumor reached its optimal size (150–200 mm3), the animals (n=10) were divided into the following groups: group 1 animals were administered a pure dye (n=1); group 2 — were given Cy7.5-GRP peptide (n=3); group 3 — were administered Cy7.5-U5-Sth1a toxin (n=3); group 4 — had Cy7.5-BBN/C1-C2 administered (n=3). The animals were anesthetized with 3% isoflurane inhalation (Chemical Iberica, Spain) at the rate of 1 L/min within 10 min, then the dose was reduced up to 2%. The peptides were injected into the caudal vein at the rate of 19 nmol/kg. […] The regions of interest were manually determined along the organ borderline; then using the software, we calculated the total fluorescence for each region. Finally, the average fluorescence of the peptides in the organ was calculated, it being normalized to the organ weight.

[4] = tested on: Nu/Nu mice with PC-3 prostate cancer tumor; experiment: Semiquantitative ex vivo organ biodistribution on day 5 (fluorescence normalized to organ weight); format: in vivo, mouse; conditions: Cy7.5-labeled peptides, i.v. 19 nmol/kg, day 5, harvested organs, n=3
Description: as §1

[5] = tested on: Nu/Nu mice with PC-3 prostate cancer tumor; experiment: In vivo surface fluorescent imaging of biodistribution; design: species or system mouse; conditions: Cy7.5-labeled peptides, i.v. 19 nmol/kg, Nu/Nu mice with PC-3 tumor, 2 days, n=3
Description: The study was carried out on Nu/Nu line male mice aged 9–10 weeks, weighing 26–28 g.
as §1

[6] = cited from earlier work
Description: Currently, there have been introduced into clinical practice several radiolabeled ligands targeting GRPR and based on a gastrin-releasing peptide (GRP) analog isolated from amphibian — bombesin (BBN) [[5–8]]. […] In addition to the high concentration of radiopharmaceuticals in non-target organs, there is one more significant problem complicating cancer therapy — pharmaceutical stability.

Substance: Cy7.5-GRP: GRP peptide labeled with Cyanine7.5 fluorescent dye (VPLPAGGGTVLTKMYPRGNHWAVGHLM; ends and bridges not checked; also: Cy7.5 NHS ester bound to peptide amino group (N-terminus or Lys not given here); UniProt P07492 24-50, looked up)
- time to which peptide stability was limited ([1]; 37°C in phosphate-buffered saline): 48 h
- chemical purity / stability after 48 h ([1]; phosphate-buffered saline pH 7.4, 37°C, 48 h, reversed-phase HPLC C18, detection 215 nm): 64.5%
- chemical purity / stability after 144 h ([1]; phosphate-buffered saline pH 7.4, 37°C, 144 h, samples every 24 h, reversed-phase HPLC C18, detection 215 nm): 46.8%
- chemical purity / stability at the start of incubation ([1]; phosphate-buffered saline pH 7.4, 37°C, start of incubation, reversed-phase HPLC C18, detection 215 nm): 95.7%

Substance: DOTA-Gly-4-aminobenzoyl-BBN(7–14) [AMBA]
- absorption by normal organs in patients [2]: significant absorption of the pharmaceutical by the pancreas and the gastrointestinal tract

Substance: GRP: a short peptide with affinity to GRPR receptors (VPLPAGGGTVLTKMYPRGNHWAVGHLM; ends and bridges not checked; UniProt P07492 24-50, looked up)
- localization of labeled peptide in the tumor on day 2 [3]: detected in the tumor to a greater extent than BBN/C1-C2
- organs of accumulation / localization, ex vivo [4]: localized in the stomach and the pancreas
- main region of binding / accumulation on day 2 [5]: the spleen
- organ of excretion on day 2 [5]: the kidney

Substance: N4-AMA-DIG-[DPhe6,Sar11,LeuNHEt13]BBN
- resistance to proteolysis [6]: high resistance to proteolysis

Substance: bombesin
- proteolytic stability [6]: low proteolytic stability

Source: PMC12892846, “Biodistribution of the Bombesin Receptor-Targeted Radiopharmaceutical Precursor BBN/C1-C2 in a Prostate Cancer Model” (Modern Technologies in Medicine, 2025)
